Reference: patent US20220289848A1

Key:
CD47 = CD47 (UniProt Q08722); test: FACS binding, CHO-K1 cells expressing CD47; flat curve
PD-L1 = PD-L1 (UniProt Q9NZQ7); test: FACS binding, CHO-K1 cells expressing PD-L1; flat curve
[1] = molecular target: human PD-L1 on PD-L1 aAPC/CHO-K1 Cells (human) (UniProt Q9NZQ7); test: cell-based or functional assay
Chain of human PD-L1 on PD-L1 aAPC/CHO-K1 Cells (human) (Q9NZQ7 19-290): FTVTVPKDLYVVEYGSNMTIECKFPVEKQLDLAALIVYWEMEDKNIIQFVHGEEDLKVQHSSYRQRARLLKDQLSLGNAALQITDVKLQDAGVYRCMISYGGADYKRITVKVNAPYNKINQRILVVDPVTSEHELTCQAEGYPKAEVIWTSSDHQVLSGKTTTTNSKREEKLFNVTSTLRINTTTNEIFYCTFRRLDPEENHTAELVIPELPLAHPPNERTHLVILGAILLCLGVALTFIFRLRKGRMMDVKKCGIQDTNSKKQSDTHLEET

Chain of PD-L1 (Q9NZQ7 19-290): as above

Row | EC50 (CD47) [pM] | EC50 (PD-L1) [nM] | PD-1/PD-L1 blockade bioassay, relative activity (reference) [1] [%] | Substance
1 | 4.46 | 38.3 |  | Human IgG
2 |  |  | 100 | Tecentriq biosimilar (antibody)
